In patent publication US20260028391A1:
Where two headings read alike, the source gives them in different places.

Legend:
[1] = molecular target: fusion glycoprotein of the RSV used in the neutralization assay of Example 1 (respiratory syncytial virus (strain not stated)); experiment: cell-based or functional assay
[2] = molecular target: RSV fusion glycoprotein (RSV-F) (respiratory syncytial virus (strain not stated)); experiment: SPR; sensors loaded with RSV-F, mAb in solution (Experiment 2)
[3] = molecular target: RSV fusion glycoprotein (RSV-F) (respiratory syncytial virus); experiment: SPR; F protein loaded on streptavidin sensors, mAb in solution
[4] = molecular target: MPV fusion glycoprotein (MPV-F) of MPV-A2 (CAN97-83) (human metapneumovirus, strain CAN97-83) (UniProt Q6WB98); experiment: cell-based or functional assay
[5] = molecular target: MPV fusion glycoprotein (MPV-F) of MPV-B2 (TN/96-213) (human metapneumovirus, strain TN/96-213); experiment: cell-based or functional assay
[6] = molecular target: RSV A Randall fusion glycoprotein (F) (RSV A, strain Randall); experiment: cell-based or functional assay
[7] = molecular target: RSV fusion glycoprotein (RSV-F) of RSV-A (A2) (respiratory syncytial virus A, strain A2) (UniProt P03420); experiment: cell-based or functional assay
[8] = molecular target: RSV fusion glycoprotein (RSV-F) of RSV-B (B1) (respiratory syncytial virus B, strain B1) (UniProt O36634); experiment: cell-based or functional assay
[9] = molecular target: RSV fusion glycoprotein (RSV-F) of the RSV used in the neutralization of Table 33 (respiratory syncytial virus, strain not stated); experiment: cell-based or functional assay
[10] = molecular target: RSV-B B9320 F protein (RSV B, strain B9320); experiment: cell-based or functional assay
[11] = molecular target: fusion glycoprotein (F) of RSV A/A2/61 (respiratory syncytial virus A/A2/61) (UniProt P03420); experiment: cell-based or functional assay
[12] = molecular target: fusion glycoprotein (F) of RSV B/9727 (respiratory syncytial virus B/9727); experiment: cell-based or functional assay
[13] = molecular target: fusion glycoprotein (F) of the MPV used in the neutralization of Table 34 (metapneumovirus); experiment: cell-based or functional assay
[14] = molecular target: fusion glycoprotein of Human Metapneumovirus-GFP CAN97-83 (Vira Tree M121) (human metapneumovirus CAN97-83) (UniProt Q6WB98); experiment: cell-based or functional assay
[15] = molecular target: fusion glycoprotein of Human metapneumovirus-TN/96-213 (BEI NR-22243) (human metapneumovirus TN/96-213); experiment: cell-based or functional assay
[16] = molecular target: fusion glycoprotein of RSV A2 BPR-344-00 (BEI NR-12149) (respiratory syncytial virus A2) (UniProt P03420); experiment: cell-based or functional assay
[17] = molecular target: fusion glycoprotein of RSV B1 BPR-348-00 (BEI NR-4052) (respiratory syncytial virus B1) (UniProt O36634); experiment: cell-based or functional assay
[18] = molecular target: fusion glycoprotein of the MPV D280 used in the neutralization assay of Example 3 (metapneumovirus (strain not stated)); experiment: cell-based or functional assay
[19] = molecular target: RSV fusion glycoprotein (RSV-F), pre-fusion conformation, recombinant protein loaded on sensors (respiratory syncytial virus (RSV), strain not stated); experiment: ELISA-type titration, OD 405 nm, on Pre-F
[20] = molecular target: RSV fusion glycoprotein (RSV-F) (respiratory syncytial virus (strain not stated)); experiment: SPR; sensors loaded with F protein, mAb in solution
[21] = molecular target: MPV fusion glycoprotein with the D280N mutation (MPV-F N280) (metapneumovirus); experiment: SPR; F protein loaded on streptavidin sensors, mAb in solution
[22] = molecular target: MPV fusion glycoprotein without the D280N mutation (MPV-F D280) (metapneumovirus); experiment: as above
RSV-A F (RSV A) [23] = experiment: BLI
RSV-B F (RSV B) [24] = experiment: BLI
[25] = molecular target: RSV A fusion glycoprotein (F), virus of the neutralisation assays of Tables 54 and 57 (RSV A); experiment: cell-based or functional assay
[26] = molecular target: RSV A2 BPR-344-00 (BEI NR-12149) fusion glycoprotein (F) (RSV A, strain A2) (UniProt P03420); experiment: cell-based or functional assay
[27] = molecular target: RSV B 9719/09 fusion glycoprotein (F) (RSV B, strain 9719/09); experiment: cell-based or functional assay
[28] = molecular target: RSV B1 BPR-348-00 (BEI NR-4052) fusion glycoprotein (F) (RSV B, strain B1) (UniProt O36634); experiment: cell-based or functional assay
[29] = molecular target: RSV-B B18537/62 F protein (RSV B, strain B18537/62) (UniProt P13843); experiment: cell-based or functional assay
[30] = molecular target: RSV-long strain fusion glycoprotein (F) (RSV, long strain) (UniProt P12568); experiment: cell-based or functional assay
[31] = molecular target: fusion glycoprotein (F) of MPV A GFP (Tables 41 and 43) (metapneumovirus A); experiment: cell-based or functional assay
[32] = molecular target: fusion glycoprotein (F) of RSV A GFP (Tables 41 and 42) (respiratory syncytial virus A); experiment: cell-based or functional assay
[33] = molecular target: fusion glycoprotein (F) of RSV B GFP (Tables 41 and 42) (respiratory syncytial virus B); experiment: cell-based or functional assay
[34] = molecular target: RSV A 2000/3-4 fusion glycoprotein (F) (RSV A, strain A 2000/3-4); experiment: cell-based or functional assay
[35] = molecular target: RSV A 2001/3-12 fusion glycoprotein (F) (RSV A, strain A 2001/3-12); experiment: cell-based or functional assay
[36] = molecular target: RSV A1997/12-35 fusion glycoprotein (F) (RSV A, strain A1997/12-35); experiment: cell-based or functional assay
[37] = molecular target: RSV A1998/3-2 fusion glycoprotein (F) (RSV A, strain A1998/3-2); experiment: cell-based or functional assay
[38] = molecular target: RSV A2 (screening GFP strain) fusion glycoprotein (F) (RSV A); experiment: cell-based or functional assay
[39] = molecular target: RSV A2 BPR-344-00 (BEI NR-12149) fusion glycoprotein (F) (RSV A, strain A2) (UniProt P03420); experiment: cell-based or functional assay; remark: listed apart in the source
[40] = molecular target: RSV A2 VR 1540 fusion glycoprotein (F) (RSV A, strain A2 (VR 1540)) (UniProt P03420); experiment: cell-based or functional assay
[41] = molecular target: RSV B (screening GFP strain) fusion glycoprotein (F) (RSV B); experiment: cell-based or functional assay
[42] = molecular target: RSV Ds Red 5 fusion glycoprotein (F) (RSV, strain printed as Ds Red 5); experiment: cell-based or functional assay
[43] = molecular target: RSV F A G446E (RSV A, strain A2) (UniProt P03420); experiment: FACS, % binding to RSV F A variants
[44] = molecular target: RSV F A L203I (RSV A, strain A2) (UniProt P03420); experiment: FACS, % binding to RSV F A variants
[45] = molecular target: RSV F A N208Y-N671I (RSV A, strain A2) (UniProt P03420); experiment: FACS, % binding to RSV F A variants
[46] = molecular target: RSV F A S433P (RSV A, strain A2) (UniProt P03420); experiment: FACS, % binding to RSV F A variants
[47] = molecular target: RSV F A S433P-G446E (RSV A, strain A2) (UniProt P03420); experiment: FACS, % binding to RSV F A variants
[48] = molecular target: RSV F A S443P-K445N (RSV A, strain A2) (UniProt P03420); experiment: FACS, % binding to RSV F A variants
[49] = molecular target: RSV F A, A2 Ref (RSV A, strain A2) (UniProt P03420); experiment: FACS, % binding to RSV F A variants
[50] = molecular target: RSV F B K68N-N201S (RSV B); experiment: FACS, % binding to RSV F B variants
[51] = molecular target: RSV F B K68N-N208S (RSV B); experiment: FACS, % binding to RSV F B variants
RSV F B N201S (RSV B) = experiment: FACS, % binding to RSV F B variants
RSV F B N208D (RSV B) = experiment: FACS, % binding to RSV F B variants
RSV F B N208S (RSV B) = experiment: FACS, % binding to RSV F B variants
RSV F B S443P (RSV B) = experiment: FACS, % binding to RSV F B variants
RSV F B, B Ref (RSV B) = experiment: FACS, % binding to RSV F B variants
RSV-A F (RSV A) [52] = experiment: affinity; method not given
RSV-B F (RSV B) [53] = experiment: affinity; method not given
[54] = molecular target: biot-RSV-F wt (respiratory syncytial virus (RSV)); experiment: BLI (Octet), biotinylated F on SA sensors, mAb 5 µg/ml

Sequence of MPE8 (antibody) (VH): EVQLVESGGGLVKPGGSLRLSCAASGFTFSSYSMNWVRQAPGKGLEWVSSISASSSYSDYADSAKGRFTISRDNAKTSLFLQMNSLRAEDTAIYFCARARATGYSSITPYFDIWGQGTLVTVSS
Sequence of MPE8 (antibody) (VL): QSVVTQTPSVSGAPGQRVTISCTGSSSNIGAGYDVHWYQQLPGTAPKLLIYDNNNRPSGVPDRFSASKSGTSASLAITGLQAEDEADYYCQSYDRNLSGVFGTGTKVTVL
Sequence of palivizumab (antibody) (VH): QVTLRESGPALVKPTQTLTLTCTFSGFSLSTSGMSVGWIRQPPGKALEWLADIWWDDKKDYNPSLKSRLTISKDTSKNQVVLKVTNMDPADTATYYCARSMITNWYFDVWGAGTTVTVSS
Sequence of palivizumab (antibody) (VL): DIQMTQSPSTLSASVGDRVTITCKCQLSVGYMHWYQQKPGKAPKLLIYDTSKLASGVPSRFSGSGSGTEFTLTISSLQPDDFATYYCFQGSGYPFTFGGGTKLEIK

palivizumab (antibody)
RSV Neutralization - IC50 [1]: 156 ng/mL
Kd [2]: 2.6 nM
Kd [3]: 2600 pM

MPE8 (antibody)
Neutralization (IC50, ng/ml) [4]: 12.6 ng/mL
Neutralization (IC50, ng/ml) [5]: 23.6 ng/mL
RSV IC50 (ng/ml), neutralization of A/Randall [6]: 22 ng/mL
Neutralization (IC50, ng/ml) [7]: 6 ng/mL
Neutralization (IC50, ng/ml) [8]: 3.7 ng/mL
IC50 (ng/mL) in neutralization against RSV [9]: 12.2 ng/mL
RSV IC50 (ng/ml), neutralization of B/9320 [10]: 3.2 ng/mL
RSV IC50 (ng/ml), neutralization of A/A2 [11]: 126 ng/mL
RSV IC50 (ng/ml), neutralization of B/9727 [12]: 16.9 ng/mL
IC50 (ng/mL) in neutralization against MPV [13]: 11 ng/mL
RSV and MPV Neutralization (IC50 ng/ml) [14]: 12.6 ng/mL
RSV and MPV Neutralization (IC50 ng/ml) [15]: 23.6 ng/mL
RSV and MPV Neutralization (IC50 ng/ml) [16]: 6.01 ng/mL
RSV and MPV Neutralization (IC50 ng/ml) [17]: 3.71 ng/mL
MPV D280 Neutralization - IC50 [18]: 6.9 ng/mL
RSV Neutralization - IC50 [1]: 15.3 ng/mL
EC50 (read off the curve) [19]: 30 ng/mL
Kd [20]: 1 pM
Kd [21]: 100 nM
Kd [22]: 2.5 nM
Kd [3]: 1 pM

MEDI8897 (antibody)
RSV Neutralization by MPK44 and MPK65-v2 - IC50 [16]: 0.2 ng/mL
RSV and MPV Neutralization (IC50 ng/ml) [16]: 0.208 ng/mL
RSV Neutralization by MPK44 and MPK65-v2 - IC50 [17]: 0.4 ng/mL
RSV and MPV Neutralization (IC50 ng/ml) [17]: 0.447 ng/mL
RSV Neutralization - IC50 [1]: 0.8 ng/mL
Kd [2]: 0.001 nM
Kd [21]: 100 nM
Kd [22]: 100 nM
Kd [3]: 1 pM

D25-rIgG1 (antibody)
IC50 (ng/mL) in neutralization against RSV [9]: 0.929 ng/mL
IC50 (ng/mL) in neutralization against MPV [13]: > 2000 ng/mL

MEDI8897-rIgG1-YTE (antibody)
Kd (RSV-A F (RSV A) [23]): 0.035 nM
Kd (RSV-B F (RSV B) [24]): 0.221 nM
IC50, virus neutralization [6]: 2.42 ng/mL
IC50, neutralization of RSVA [25]: 7.74 ng/mL
IC50, virus neutralization [26]: 0.2 ng/mL
IC50, virus neutralization [27]: 1.25 ng/mL
EC50, virus neutralization (Fab testing) [28]: 8.8 pM
IC50, virus neutralization [28]: 0.4 ng/mL
EC50, virus neutralization (Fab testing) [29]: 0.011 nM
EC50, virus neutralization (Fab testing) [10]: 0.0102 nM
EC50, virus neutralization (Fab testing) [30]: 6.9 pM
IC50 (ng/ml), MPV A GFP neutralization [31]: > 2000 ng/mL
IC50 (ng/ml), RSV A GFP neutralization [32]: 0.483 ng/mL
IC50 (ng/ml), RSV B GFP neutralization [33]: 0.419 ng/mL
IC50, virus neutralization [34]: 0.57 ng/mL
IC50, virus neutralization [35]: 0.63 ng/mL
IC50, virus neutralization [36]: 0.76 ng/mL
IC50, virus neutralization [37]: 0.9 ng/mL
IC50, virus neutralization [38]: 1.02 ng/mL
IC50, virus neutralization [39]: 1.01 ng/mL
IC50, virus neutralization [40]: 1.14 ng/mL
IC50, virus neutralization [41]: 1.14 ng/mL
IC50, virus neutralization [42]: 0.48 ng/mL
% binding [43]: 28.5%
% binding [44]: 0.04%
% binding [45]: 0.049%
% binding [46]: 35.3%
% binding [47]: 35.8%
% binding [48]: 34.5%
% binding [49]: 60.2%
% binding [50]: 0.056%
% binding [51]: 0.031%
% binding (RSV F B N201S (RSV B)): 27.3%
% binding (RSV F B N208D (RSV B)): 0.026%
% binding (RSV F B N208S (RSV B)): 0.035%
% binding (RSV F B S443P (RSV B)): 38.5%
% binding (RSV F B, B Ref (RSV B)): 57.3%
Kd (RSV-A F (RSV A) [52]): 1 pM
Kd (RSV-B F (RSV B) [53]): 1.22 nM
Kd [54]: 0.0397 nM
